Results reported in publication PMC7954794, “Protein context shapes the specificity of SH3 domain-mediated interactions in vivo” (Nature Communications, 2021).

Tested on: Abp1 PPIs
Experiment: DHFR-PCA of Abp1 SH3-swapped baits (Fig. 2B-D, S2C, S2F);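 as to Protein-protein interaction distance between Abp1 SH3-swapped baits, to ABP1: Euclidean distance between DHFR-PCA score profiles of the baits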;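 as to Protein-protein interaction distance between Abp1 SH3-swapped baits, to BEM1-2: Euclidean distance between DHFR-PCA score profiles of the baits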;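 as to Protein-protein interaction distance between Abp1 SH3-swapped baits, to BOI1: Euclidean distance between DHFR-PCA score profiles of the baits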;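 as to Protein-protein interaction distance between Abp1 SH3-swapped baits, to BZZ1-1: Euclidean distance between DHFR-PCA score profiles of the baits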
Assay type: cell-based, Saccharomyces cerevisiae
In short: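 Yeast DHFR-PCA in which Abp1 baits, carrying their SH3 replaced by CRISPR–Cas9 with one of 27 yeast SH3s or human CTTN, HCLS1 or DBNL SH3s, were mated against 575 SH3-associated DHFR F[3] preys plus 40 negative controls. Four tests were run per PPI. Diploids were selected twice (48 h, 30 °C), then grown 4 days on PCA selection media.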

[1] = number of PPIs, difference, Abp1 SH3-swapped with the listed SH3, Fig2D,S2F

B1: LSB1 (protein, UniProt P53281 2-241, looked up)
LAS seventeen-binding protein …: SASLVNRSLKNIRNELEFLKESNVISGDIFELINSKLPEKWDGNQRSPQNADTEEYVEALYDFEAQQDGDLSLKTGDKIQVLEKISPDWYRGKSNNKIGIFPANYVKPAFTRSASPKSAEAASSSTVSRPSVPPPSYEPAASQYPSQQVSAPYAPPAGYMQAPPPQQQQAPLPYPPPFTNYYQQPQQQYAPPSQQAPVEAQPQQSSGASSAFKSFGSKLGNAAIFGAGSAIGSDIVNSIF
Protein-protein interaction distance between Abp1 SH3-swapped baits, to ABP1 (Abp1 bait with swapped SH3, distance to bait with ABP1 SH3, sheet Fig2C): 13.24 | Protein-protein interaction distance between Abp1 SH3-swapped baits, to BBC1 (distance to Abp1 bait with BBC1 SH3, sheet Fig2C): 13.47 | Protein-protein interaction distance between Abp1 SH3-swapped baits, to BEM1-1 (distance to Abp1 bait with BEM1-1 SH3, sheet Fig2C): 19.25 | Protein-protein interaction distance between Abp1 SH3-swapped baits, to BEM1-2 (distance to Abp1 bait with BEM1-2 SH3, sheet Fig2C): 36.52 | Protein-protein interaction distance between Abp1 SH3-swapped baits, to BOI1 (distance to Abp1 bait with BOI1 SH3, sheet Fig2C): 16.11 | Protein-protein interaction distance between Abp1 SH3-swapped baits, to BOI2 (distance to Abp1 bait with BOI2 SH3, sheet Fig2C): 19.63 | Protein-protein interaction distance between Abp1 SH3-swapped baits, to BUD14 (distance to Abp1 bait with BUD14 SH3, sheet Fig2C): 22.3 | Protein-protein interaction distance between Abp1 SH3-swapped baits, to BZZ1-1 (distance to Abp1 bait with BZZ1-1 SH3, sheet Fig2C): 10.43 | Protein-protein interaction distance between Abp1 SH3-swapped baits, to BZZ1-2 (distance to Abp1 bait with BZZ1-2 SH3, sheet Fig2C): 15.96 | Protein-protein interaction distance between Abp1 SH3-swapped baits, to CDC25 (distance to Abp1 bait with CDC25 SH3, sheet Fig2C): 30.85 | Protein-protein interaction distance between Abp1 SH3-swapped baits, to CTTN (distance to Abp1 bait with CTTN SH3, sheet Fig2C): 16.72 | Protein-protein interaction distance between Abp1 SH3-swapped baits, to CYK3 (distance to Abp1 bait with CYK3 SH3, sheet Fig2C): 31.53 | Protein-protein interaction distance between Abp1 SH3-swapped baits, to DBNL (distance to Abp1 bait with DBNL SH3, sheet Fig2C): 10.77 | Protein-protein interaction distance between Abp1 SH3-swapped baits, to FUS1 (distance to Abp1 bait with FUS1 SH3, sheet Fig2C): 23.45 | Protein-protein interaction distance between Abp1 SH3-swapped baits, to HCLS1 (distance to Abp1 bait with HCLS1 SH3, sheet Fig2C): 10.61 | Protein-protein interaction distance between Abp1 SH3-swapped baits, to HOF1 (distance to Abp1 bait with HOF1 SH3, sheet Fig2C): 35.15 | Protein-protein interaction distance between Abp1 SH3-swapped baits, to HSE1 (distance to Abp1 bait with HSE1 SH3, sheet Fig2C): 12.02 | Protein-protein interaction distance between Abp1 SH3-swapped baits, to LSB1 (distance to Abp1 bait with LSB1 SH3, sheet Fig2C): 0.00 | Protein-protein interaction distance between Abp1 SH3-swapped baits, to LSB3 (distance to Abp1 bait with LSB3 SH3, sheet Fig2C): 3.731 | Protein-protein interaction distance between Abp1 SH3-swapped baits, to MYO3 (distance to Abp1 bait with MYO3 SH3, sheet Fig2C): 9.135 | Protein-protein interaction distance between Abp1 SH3-swapped baits, to MYO5 (distance to Abp1 bait with MYO5 SH3, sheet Fig2C): 7.822 | Protein-protein interaction distance between Abp1 SH3-swapped baits, to NBP2 (distance to Abp1 bait with NBP2 SH3, sheet Fig2C): 21.49 | Protein-protein interaction distance between Abp1 SH3-swapped baits, to PIN3 (distance to Abp1 bait with PIN3 SH3, sheet Fig2C): 5.513 | Protein-protein interaction distance between Abp1 SH3-swapped baits, to RVS167 (distance to Abp1 bait with RVS167 SH3, sheet Fig2C): 7.392 | Protein-protein interaction distance between Abp1 SH3-swapped baits, to SDC25 (distance to Abp1 bait with SDC25 SH3, sheet Fig2C): 37.12 | Protein-protein interaction distance between Abp1 SH3-swapped baits, to SHO1 (distance to Abp1 bait with SHO1 SH3, sheet Fig2C): 11.57 | Protein-protein interaction distance between Abp1 SH3-swapped baits, to SLA1-1 (distance to Abp1 bait with SLA1-1 SH3, sheet Fig2C): 33.34 | Protein-protein interaction distance between Abp1 SH3-swapped baits, to SLA1-2 (distance to Abp1 bait with SLA1-2 SH3, sheet Fig2C): 24.03 | Protein-protein interaction distance between Abp1 SH3-swapped baits, to SLA1-3 (distance to Abp1 bait with SLA1-3 SH3, sheet Fig2C): 5.759 | Protein-protein interaction distance between Abp1 SH3-swapped baits, to YSC84 (distance to Abp1 bait with YSC84 SH3, sheet Fig2C): 3.911 | PPIs gained by Abp1 - SH3-dependent PPIs gained by Abp1 [1]: 41 | SH3-dependent PPIs - SH3-dependent PPIs gained by Abp1 [1]: 8 | SH3-dependent PPIs gained by Abp1 (number of PPIs, Abp1 SH3-swapped with the listed SH3, DHFR-PCA, Fig2D,S2F): 0
